Laboratory results taken from patent US20250326865A1, “C-MET PROTEIN-BINDING PEPTIDE COMPLEX” (PeptiDream Inc., priority 2021, published 2025).
Like-named read-outs stand apart in the source and are kept apart here. One block for each molecule: values may come before it. Starred links: 1 amine or outer side, 2 acyl side, 3 side chain; linkers in the order of their positions; H or OH if unused. Positions of bridges follow the written chain, without caps; N, C: chain ends. Non-standard residues stand in square brackets, D forms with d. Residues, ends and D or L forms follow the SMILES beside them. Primed or numbered codes have the meaning given here. Chains are numbered I, II in the order given. No end group written: not given here. CO(CH2)2(OCH2CH2)17CO = O=C(CCOCCOCCOCCOCCOCCOCCOCCOCCOCCOCCOCCOCCOCCOCCOCCOCCOCCC(=O)[*:2])[*:1]; OCOPEG13OCO = 3,6,9,12,15,18,21,24,27,30,33-undecaoxapentatriacontane-1,35-diylbis(bicarbonate); X1 = O=C(OCCOCCOCCOCCOCCOCCOCCOCCOCCOCCOCCOCCOC(=O)[*:2])[*:1]; NMeF = CN[C@@H](Cc1ccccc1)C(=O)O; Ahp(2) = CCCCC[C@H](N)C(=O)O; NMeC = CN[C@@H](CS)C(=O)O; Ahp′ = not defined here

Columns and labels:
c-Met = biological target: T1, c-Met (Homo sapiens, UniProt P08581); test: Phospho-c-Met AlphaLISA assay (c-Met agonist activity) in A431 cells; type: cell-based; settings: for EC50: A431 cells; for C-Met Agonist Activity (2 or 1): c-Met phosphorylation (Tyr1234/1235) in A431 cells, maximum signal induced by HGF = 100%
T1 construct: endogenous in cells; host or cells: A431 (human)
T1 sequence (P08581 25-1390): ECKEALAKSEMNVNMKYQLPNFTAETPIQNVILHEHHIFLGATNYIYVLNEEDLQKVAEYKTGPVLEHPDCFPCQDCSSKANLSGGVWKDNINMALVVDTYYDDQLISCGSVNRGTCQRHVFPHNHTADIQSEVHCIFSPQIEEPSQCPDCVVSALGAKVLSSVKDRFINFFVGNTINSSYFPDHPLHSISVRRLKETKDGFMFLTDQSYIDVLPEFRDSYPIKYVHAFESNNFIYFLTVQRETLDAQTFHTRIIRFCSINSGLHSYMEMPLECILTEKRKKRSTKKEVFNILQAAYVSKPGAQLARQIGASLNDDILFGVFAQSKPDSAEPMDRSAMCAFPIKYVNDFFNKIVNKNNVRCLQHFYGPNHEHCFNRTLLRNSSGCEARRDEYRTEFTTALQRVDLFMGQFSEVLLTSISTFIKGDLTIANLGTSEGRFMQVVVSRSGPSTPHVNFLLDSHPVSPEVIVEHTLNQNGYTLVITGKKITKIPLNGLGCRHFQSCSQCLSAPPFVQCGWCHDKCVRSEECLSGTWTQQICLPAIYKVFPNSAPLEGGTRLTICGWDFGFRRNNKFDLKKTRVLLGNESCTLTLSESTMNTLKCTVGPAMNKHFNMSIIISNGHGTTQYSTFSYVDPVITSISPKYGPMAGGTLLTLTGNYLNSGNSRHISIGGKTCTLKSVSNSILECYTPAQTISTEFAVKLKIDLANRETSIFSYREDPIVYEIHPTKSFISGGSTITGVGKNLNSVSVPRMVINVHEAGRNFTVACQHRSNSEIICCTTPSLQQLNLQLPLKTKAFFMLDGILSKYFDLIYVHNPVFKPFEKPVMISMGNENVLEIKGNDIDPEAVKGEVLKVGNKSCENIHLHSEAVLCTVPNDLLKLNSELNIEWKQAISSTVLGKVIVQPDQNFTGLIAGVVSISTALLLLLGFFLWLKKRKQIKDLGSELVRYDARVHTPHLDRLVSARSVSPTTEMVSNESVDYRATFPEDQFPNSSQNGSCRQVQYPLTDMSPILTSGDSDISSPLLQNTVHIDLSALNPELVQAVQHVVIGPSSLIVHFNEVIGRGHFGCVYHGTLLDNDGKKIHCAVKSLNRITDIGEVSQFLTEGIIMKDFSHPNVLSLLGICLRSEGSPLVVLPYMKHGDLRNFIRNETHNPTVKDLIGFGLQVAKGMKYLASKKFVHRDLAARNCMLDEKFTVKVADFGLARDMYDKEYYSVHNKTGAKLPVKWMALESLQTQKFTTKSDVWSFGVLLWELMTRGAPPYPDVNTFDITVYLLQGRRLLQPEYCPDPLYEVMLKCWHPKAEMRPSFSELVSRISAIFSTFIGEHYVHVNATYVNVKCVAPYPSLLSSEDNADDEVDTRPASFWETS
How it was run: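 Human A431 cells serum-starved overnight in 0.1% BSA medium, then stimulated 15 min with peptide complex, with HGF as control. Phospho-c-Met (Tyr1234/1235) in lysates measured by AlphaLISA SureFire Ultra. C50 is the peptide concentration giving 50% of the HGF-induced signal.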

[1] = test system: Normal human umbilical vein vascular endothelial cells (HUVECs); type: cell-based; settings: HUVEC, cultured for 2 days after addition, FIG. 2; read-out: EC50 (HUVEC cell proliferation)
Description: In order to evaluate the biological activity of the peptide complex of the present invention, the cell proliferation inducing activity was verified. Normal human umbilical vein vascular endothelial cells (HUVECs) were cultured using HuMedia-EG2 (KURABO INDUSTRIES LTD.). After cells were detached using Accutase (Innovative cell technologies), they were resuspended in a Medium without serum or growth factors (Cell system) containing 5% FBS (MBL), seeded into a 96-well plate at 10000 cells per well, and cultured overnight. The next day, a complex (GFs_c-Met-00014336-PEG13 dimer; peptide complex no. 49 in Table 4) of the peptide (SEQ ID NO: 34) synthesized in Example 2 and a linker (SEQ ID NO: 37), or Recombinant Human HGF Protein (R&D systems) as a control was added and cultured for another 2 days. The medium was then removed and the cell count was determined quantitatively using the CellTiter-Glo (registered trademark) Luminescent Cell Viability Assay reagent (Promega) according to the protocol provided. A SpectraMax (registered trademark) Paradigm (registered trademark) multimode microplate reader (Molecular Devices, LLC.) was used for detection. The obtained signal value was analyzed by GraphPad Prism, and EC50 was calculated.

HGF R = biological target: T2, HGF R (Homo sapiens, UniProt P08581); test: Human Phospho-RTK array assay in A431 cells; type: cell-based; settings: 10 minutes of stimulation, 2 nM complex, 7.8 nM HGF
T2 construct: endogenous in cells; host or cells: A431
T2 sequence (P08581 25-1390): as above
Description: A431 cells were cultured in DMEM high glucose, GlutaMAX (registered trademark) Supplement, pyruvate (Thermo Fisher Scientific), containing 10% FBS (Gibco). After cells were detached using Accutase (registered trademark) (Innovative cell technologies), they were seeded into a 6-well plate at 1000000 cells per well and cultured overnight.
The next day, for starvation, the culture medium was changed to DMEM high glucose, GlutaMAX (registered trademark) Supplement, pyruvate (Thermo Fisher Scientific), containing an assay medium (0.1% BSA (Sigma-Aldrich)), and the cells were cultured overnight. Then, 7.8 nM Recombinant Human HGF Protein (R&D systems) or 2 nM complex (GFs_c-Met 00014336-PEG9 dimer; peptide complex No. 51 in Table 4) of peptide (SEQ ID NO: 34) synthesized in Example 2 and a linker (SEQ ID NO: 36) was added, and after 10 minutes of stimulation, cells were lysed in a Lysis Buffer provided in the Proteome Profiler Human Phospho-RTK Array Kit (R & D systems). Thereafter, the procedure was performed according to the protocol of the kit, and chemiluminescent signals by WesternSure (registered trademark) PREMIUM chemiluminescent substrate kit (LI-COR) were detected using C-DiGit (registered trademark) (Scrum).
In (2) in FIG. 5, a is the result of no addition, b is of addition of HGF, and c of addition of the peptide complex.

[2] = test system: Renal proximal tubule epithelial cells (RPTEC); test: Evaluation of tube formation in collagen gel; type: cell-based
Description: Renal proximal tubule epithelial cells (RPTEC) were cultured in a growth medium (Renal Epithelial Cell Basal Medium (REBM)+0.5% FBS+2.4 mM L-Alanyl-L-Glutamine+10 nM Triiodothyronine+10 ng/mL rh EGF+100 ng/mL Hydrocortisone Hemisuccinate+5 μg/mL rh Insulin+1 μM Epinephrine+5 μg/mL Transferrin) (ATCC). The cells were detached using Trypsin-EDTA, and then resuspended in an assay medium (REBM+0.5% FBS+2.4 mM L-Alanyl-L-Glutamine+10 nM Triiodothyronine+100 ng/mL Hydrocortisone Hemisuccinate+1 μM Epinephrine+5 μg/mL Transferrin+1.8 mM CaCl2).
RPTECs were resuspended in a mixture of Cellmatrix (registered trademark) Type I-A (Nitta Gelatin Inc.), concentrated culture solution (Nitta Gelatin Inc.) and a reconstitution buffer solution (Nitta Gelatin Inc.) on ice according to the instructions. […]
To the assay medium, 2 nM HGF, 1.6 nM EGF or a complex GFs_c-Met-00014336-PEG13 dimer; peptide complex No. 49 in Table 4) of a peptide (SEQ ID NO: 34) synthesized in Example 2 and a linker (SEQ ID NO: 37) at 0.08, 0.4, 2, and 10 nM, was added and 400 μL of each resultant mixture was added to each well of 48-well plate to which the gelated suspension had been added as mentioned above. […] The presence or absence of tube formation was observed and evaluated using a phase-contrast microscope on the third day and the eighth day of the start of the culturing.

human c-Met protein [3] = biological target: T3, human c-Met protein (human, UniProt P08581 25-1390); test: cell-based or functional assay
T3 sequence (P08581 25-1390): as above

human c-Met protein [4] = biological target: T3, human c-Met protein; test: cell-based or functional assay; remark: listed apart in the source
human c-Met protein [5] = biological target: T3, human c-Met protein; test: cell-based or functional assay; remark: listed apart in the source

EC50 (c-Met; phospho-c-Met AlphaLISA, FIG. 1, read-out: EC50 (c-Met agonist activity)): 0.66 nM
Molecule: HGF: Recombinant Human HGF Protein (R&D systems), hepatocyte growth factor, used as a control
EC50 [1]: 370 pM
specific phosphorylation pattern of receptor tyrosine kinases (HGF R): Only HGF R was specifically phosphorylated

Molecule: 51 ({CH2CO}-[NMeF]TAVS[NMeF]DED[Ahp′]PRWS[NMeC]; thioether N-15 (inferred); not fully specified; reading uncertain; also: conjugated moiety via linker) [compound 51]
specific phosphorylation pattern of receptor tyrosine kinases (HGF R): Only HGF R was specifically phosphorylated

Molecule: CCCCC[C@@H]1NC(=O)[C@H](CC(=O)O)NC(=O)[C@H](CCC(=O)O)NC(=O)[C@H](CC(=O)O)NC(=O)[C@H](Cc2ccccc2)N(C)C(=O)[C@H](CO)NC(=O)[C@H](C(C)C)NC(=O)[C@H](C)NC(=O)[C@H]([C@@H](C)O)NC(=O)[C@H](Cc2ccccc2)N(C)C(=O)CSC[C@@H](C(=O)NCC(=O)N[C@@H](CCCCNC(=O)OCCOCCOCCOCCOCCOCCOCCOCCOCCOCCOCCOCCOC(=O)NCCCC[C@H](NC(=O)CNC(=O)[C@@H]2CSCC(=O)N(C)[C@@H](Cc3ccccc3)C(=O)N[C@@H]([C@@H](C)O)C(=O)N[C@@H](C)C(=O)N[C@@H](C(C)C)C(=O)N[C@@H](CO)C(=O)N(C)[C@@H](Cc3ccccc3)C(=O)N[C@@H](CC(=O)O)C(=O)N[C@@H](CCC(=O)O)C(=O)N[C@@H](CC(=O)O)C(=O)N[C@@H](CCCCC)C(=O)N3CCC[C@H]3C(=O)N[C@@H](CCCNC(=N)N)C(=O)N[C@@H](Cc3c[nH]c4ccccc34)C(=O)N[C@@H](CO)C(=O)N2C)C(N)=O)C(N)=O)N(C)C(=O)[C@H](CO)NC(=O)[C@H](Cc2c[nH]c3ccccc23)NC(=O)[C@H](CCCNC(=N)N)NC(=O)[C@@H]2CCCN2C1=O [compound 49] (I: {CH2CO}-[NMeF]TAVS[NMeF]DED[Ahp(2)]PRWS[NMeC]GK-NH2 / II: {CH2CO}-[NMeF]TAVS[NMeF]DED[Ahp(2)]PRWS[NMeC]GK-NH2; linker I:17-II:17 via X1 (inferred); thioether I:N-I:15, II:N-II:15 (inferred); C-terminus assumed)
EC50 [1]: 550 pM
tube formation ([2]; RPTEC in collagen gel, 0.08-10 nM, third and eighth day, phase-contrast microscope): promoted tube formation
tube formation with branching ([2]; RPTEC, 10 nM complex, eighth day (f of FIG. 4)): not only tube formation but also branch formation was promoted

EC50, HUVEC cell proliferation (CellTiter-Glo) (human c-Met protein [3]): 370 pM
EC50, phospho-c-Met AlphaLISA, A431 cells (human c-Met protein [3]): 660 pM
Molecule: Recombinant Human HGF Protein (R&D systems) (from UniProt P14210 32-728) (ligand)

Molecule: 5 ([NMeF]WYVS[NMeF]DDD[Ahp′]PRWS[NMeC]; not fully specified; reading uncertain) [Peptide 5]
C-Met Agonist Activity (2 or 1) (c-Met; 15 minutes of stimulation): 2 (those showing more than 50% activation were described as 2)

Molecule: 9 ([NMeF]VYVS[NMeF]DDDSPRWS[NMeC]; also: conjugated moiety via linker, site not given here) [Peptide 9]
C-Met Agonist Activity (2 or 1) (c-Met; 15 minutes of stimulation): 2 (those showing more than 50% activation were described as 2)

EC50 (c-Met; concentration of peptide showing 50% activity of the signal induced by HGF, 15 minutes of stimulation, read-out: C-Met Agonist Activity (C50; nM)): 2.37 nM
Molecule: CCCCC[C@@H]1NC(=O)[C@H](CC(=O)O)NC(=O)[C@@H]2CCCN2C(=O)[C@H](CC(=O)O)NC(=O)[C@H](Cc2ccccc2)N(C)C(=O)[C@H](CO)NC(=O)[C@H](C(C)C)NC(=O)[C@H](C)NC(=O)[C@H](CCC(=O)O)NC(=O)[C@H](Cc2ccccc2)N(C)C(=O)CSC[C@@H](C(=O)NCC(=O)N[C@@H](CCCCNC(=O)CCOCCOCCOCCOCCOCCOCCOCCOCCOCCOCCOCCOCCOCCOCCOCCOCCOCCC(=O)NCCCC[C@H](NC(=O)CNC(=O)[C@@H]2CSCC(=O)N(C)[C@@H](Cc3ccccc3)C(=O)N[C@@H](CCC(=O)O)C(=O)N[C@@H](C)C(=O)N[C@@H](C(C)C)C(=O)N[C@@H](CO)C(=O)N(C)[C@@H](Cc3ccccc3)C(=O)N[C@@H](CC(=O)O)C(=O)N3CCC[C@H]3C(=O)N[C@@H](CC(=O)O)C(=O)N[C@@H](CCCCC)C(=O)N3CCC[C@H]3C(=O)N[C@@H](CCCNC(=N)N)C(=O)N[C@@H](Cc3c[nH]c4ccccc34)C(=O)N[C@@H](C)C(=O)N2C)C(N)=O)C(N)=O)N(C)C(=O)[C@H](C)NC(=O)[C@H](Cc2c[nH]c3ccccc23)NC(=O)[C@H](CCCNC(=N)N)NC(=O)[C@@H]2CCCN2C1=O [Peptide 27] (I: {CH2CO}-[NMeF]EAVS[NMeF]DPD[Ahp(2)]PRWA[NMeC]GK-NH2 / II: {CH2CO}-[NMeF]EAVS[NMeF]DPD[Ahp(2)]PRWA[NMeC]GK-NH2; linker I:17-II:17 via CO(CH2)2(OCH2CH2)17CO (inferred); thioether I:N-I:15, II:N-II:15 (inferred); C-terminus assumed)

Molecule: 3 ({CH2CO}-FVYVS[NMeF]DDD[Ahp′]PRWS[NMeC]; thioether N-15 (inferred); not fully specified; reading uncertain; also: conjugated moiety via linker) [Peptide 3]
C-Met Agonist Activity (2 or 1) (c-Met; 15 minutes of stimulation): 1 (those showing less than 50% activation as 1)

C-Met Agonist Activity (C50; nM): phospho-c-Met AlphaLISA, A431 cells (human c-Met protein [4]): 0.67 nM
EC50, HUVEC cell proliferation (CellTiter-Glo) (human c-Met protein [5]): 550 pM
EC50, phospho-c-Met AlphaLISA, A431 cells (FIG. 1) (human c-Met protein [5]): 720 pM
B1: GFs_c-Met-00014336-PEG13 dimer (peptide SEQ ID NO: 34, GFs_c-Met-00014336p; linker SEQ ID NO: 37) (peptide)
peptide: {CH2CO}-[NMeF]TAVS[NMeF]DED[Ahp(2)]PRWS[NMeC]
chain: GK[OCOPEG13OCO]KG
modifications: thioether I:N-I:15 (inferred); also: homodimer: two cyclic peptides joined by linker G-K-OCOPEG13OCO-K-G, peptide C-terminus on linker
